The chains are these.
B1: full-length p115–GFP (wild type) [human] / endogenous Sec16A (HEK293T) [human (endogenous in HEK293T)] (parent complex)
chain 1: MNFLRGVMGGQSAGPQHTEAETIQKLCDRVASSTLLDDRRNAVRALKSLSKKYRLEVGIQAMEHLIHVLQTDRSDSEIIGYALDTLYNIISNEEEEEVEENSTRQSEDLGSQFTEIFIKQQENVTLLLSLLEEFDFHVRWPGVKLLTSLLKQLGPQVQQIILVSPMGVSRLMDLLADSREVIRNDGVLLLQALTRSNGAIQKIVAFENAFERLLDIISEEGNSDGGIVVEDCLILLQNLLKNNNSNQNFFKEGSYIQRMKPWFEVGDENSGWSAQKVTNLHLMLQLVRVLVSPTNPPGATSSCQKAMFQCGLLQQLCTILMATGVPADILTETINTVSEVIRGCQVNQDYFASVNAPSNPPRPAIVVLLMSMVNERQPFVLRCAVLYCFQCFLYKNQKGQGEIVSTLLPSTIDATGNSVSAGQLLCGGLFSTDSLSNWCAAVALAHALQENATQKEQLLRVQLATSIGNPPVSLLQQCTNILSQGSKIQTRVGLLMLLCTWLSNCPIAVTHFLHNSANVPFLTGQIAENLGEEEQLVQGLCALLLGISIYFNDNSLESYMKEKLKQLIEKRIGKENFIEKLGFISKHELYSRASQKPQPNFPSPEYMIFDHEFTKLVKELEGVITKAIYKSSEEDKKEEEVKKTLEQHDNIVTHYKNMIREQDLQLEELRQQVSTLKCQNEQLQTAVTQQVSQIQQHKDQYNLLKIQLGKDNQHQGSYSEGAQMNGIQPEEIGRLREEIEELKRNQELLQSQLTEKDSMIENMKSSQTSGTNEQSSAIVSARDSEQVAELKQELATLKSQLNSQSVEITKLQTEKQELLQKTEAFAKSVEVQGETETIIATKTTDVEGRLSALLQETKELKNEIKALSEERTAIKEQLDSSNSTIAILQTEKDKLELEITDSKKEQDDLLVLLADQDQKILSLKNKLKDLGHPVEEEDELESGDQEDEDDESEDPGKDLDHI
chain 2: MQPPPQTVPSGMAGPPPAGNPRSVFWASSPYRRRANNNAAVAPTTCPLQPVTDPFAFSRQALQSTPLGSSSKSSPPVLQGPAPAGFSQHPGLLVPHTHARDSSQGPCEPLPGPLTQPRAHASPFSGALTPSAPPGPEMNRSAEVGPSSEPEVQTLPYLPHYIPGVDPETSHGGHPHGNMPGLDRPLSRQNPHDGVVTPAASPSLPQPGLQMPGQWGPVQGGPQPSGQHRSPCPEGPVPSGVPCATSVPHFPTPSILHQGPGHEQHSPLVAPPAALPSDGRDEVSHLQSGSHLANNSDPESTFRQNPRIVNHWASPELRQNPGVKNEHRPASALVNPLARGDSPENRTHHPLGAGAGSGCAPLEADSGASGALAMFFQGGETENEENLSSEKAGLSGQADFDDFCSSPGLGRPPAPTHVGAGSLCQALLPGPSNEAAGDVWGDTASTGVPDASGSQYENVENLEFVQNQEVLPSEPLNLDPSSPSDQFRYGPLPGPAVPRHGAVCHTGAPDATLHTVHPDSVSSSYSSRSHGRLSGSARPQELVGTFIQQEVGKPEDEASGSFFKQIDSSPVGGETDETTVSQNYRGSVSQPSTPSPPKPTGIFQTSANSSFEPVKSHLVGVKPFEADRANVVGEVRETCVRQKQCRPAAALPDASPGNLEQPPDNMETLCAPQVCPLPLNSTTEAVHMLPHAGAPPLDTVYPAPEKRPSARTQGPVKCESPATTLWAQSELPDFGGNVLLAPAAPALYVCAKPQPPVVQPPEEAMSGQQSRNPSSAAPVQSRGGIGASENLENPPKMGEEEALQSQASSGYASLLSSPPTESLQNPPVLIAQPDHSYNLAQPINFSVSLSNSHEKNQSWREALVGDRPAVSSWALGGDSGENTSLSGIPTSSVLSLSLPSSVAQSNFPQGSGASEMVSNQPANLLVQPPSQPVPENLVPESQKDRKAGSALPGFANSPAGSTSVVLVPPAHGTLVPDGNKANHSSHQEDTYGALDFTLSRTLENPVNVYNPSHSDSLASQQSVASHPRQSGPGAPNLDRFYQQVTKDAQGQPGLERAQQELVPPQQQASPPQLPKAMFSELSNPESLPAQGQAQNSAQSPASLVLVDAGQQLPPRPPQSSSVSLVSSGSGQAAVPSEQPWPQPVPALAPGPPPQDLAAYYYYRPLYDAYQPQYSLPYPPEPGAASLYYQDVYSLYEPRYRPYDGAASAYAQNYRYPEPERPSSRASHSSERPPPRQGYPEGYYSSKSGWSSQSDYYASYYSSQYDYGDPGHWDRYHYSARVRDPRTYDRRYWCDAEYDAYRREHSAFGDRPEKRDNNWRYDPRFTGSFDDDPDPHRDPYGEEVDRRSVHSEHSARSLHSAHSLASRRSSLSSHSHQSQIYRSHNVAAGSYEAPLPPGSFHGDFAYGTYRSNFSSGPGFPEYGYPADTVWPAMEQVSSRPTSPEKFSVPHVCARFGPGGQLIKVIPNLPSEGQPALVEVHSMEALLQHTSEQEEMRAFPGPLAKDDTHKVDVINFAQNKAMKCLQNENLIDKESASLLWNFIVLLCRQNGTVVGTDIAELLLRDHRTVWLPGKSPNEANLIDFTNEAVEQVEEEESGEAQLSFLTGGPAAAASSLERETERFRELLLYGRKKDALESAMKNGLWGHALLLASKMDSRTHARVMTRFANSLPINDPLQTVYQLMSGRMPAASTCCGDEKWGDWRPHLAMVLSNLNNNMDVESRTMATMGDTLASRGLLDAAHFCYLMAQAGFGVYTKKTTKLVLIGSNHSLPFLKFATNEAIQRTEAYEYAQSLGAETCPLPSFQVFKFIYSCRLAEMGLATQAFHYCEAIAKSILTQPHLYSPVLISQLVQMASQLRLFDPQLKEKPEEESLAAPTWLVHLQQVERQIKEGAGVWHQDGALPQQCPGTPSSEMEQLDRPGLSQPGALGIANPLLAVPAPSPEHSSPSVRLLPSAPQTLPDGPLASPARVPMFPVPLPPGPLEPGPGCVTPGPALGFLEPSGPGLPPGVPPLQERRHLLQEARSPDPGIVPQEAPVGNSLSELSEENFDGKFANLTPSRTVPDSEAPPGWDRADSGPTQPPLSLSPAPETKRPGQAAKKETKEPKKGESWFFRWLPGKKKTEAYLPDDKNKSIVWDEKKNQWVNLNEPEEEKKAPPPPPTSMPKTVQAAPPALPGPPGAPVNMYSRRAAGTRARYVDVLNPSGTQRSEPALAPADFVAPLAPLPIPSNLFVPTPDAEEPQLPDGTGREGPAAARGLANPEPAPEPKVLSSAASLPGSELPSSRPEGSQGGELSRCSSMSSLSREVSQHFNQAPGDLPAAGGPPSGAMPFYNPAQLAQACATSGSSRLGRIGQRKHLVLN
B2: full-length p115–GFP (wild type) [human] / Sec13 [human (endogenous in HEK293T)] (parent complex)
chain 1: B1 chain 1
chain 2: MVSVINTVDTSHEDMIHDAQMDYYGTRLATCSSDRSVKIFDVRNGGQILIADLRGHEGPVWQVAWAHPMYGNILASCSYDRKVIIWREENGTWEKSHEHAGHDSSVNSVCWAPHDYGLILACGSSDGAISLLTYTGEGQWEVKKINNAHTIGCNAVSWAPAVVPGSLIDHPSGQKPNYIKRFASGGCDNLIKLWKEEEDGQWKEEQKLEAHSDWVRDVAWAPSIGLPTSTIASCSQDGRVFIWTCDDASSNTWSPKLLHKFNDVVWHVSWSITANILAVSGGDNKVTLWKESVDGQWVCISDVNKGQGSVSASVTEGQQNEQ

One experiment covers variants of B1. Briefly: co-precipitation with p115–GFP, volcano plot of protein enrichment; HEK293T cells; means of biological triplicates; read off a plot.
On to chain 1 Q462D, for which the screen value was about 6.1.

Variants of B2 are the subject of the next experiment. Described as above.
As for chain 1 Q462D, the screen value is about 5.8.

The values are drawn from publication PMC7619307, “The Golgi vesicle tether p115 can bind directly to the ER exit site organiser Sec16A” (Journal of cell science, 2026).
